Among the data in publication PMC11785871, “D-Serine disrupts Cbln1 and GluD1 interaction and affects Cbln1-dependent synaptic effects and nocifensive responses in the central amygdala” (Cellular and Molecular Life Sciences: CMLS, 2025) are IC50 and Kd values, retold here.

For test [1], the target named is T1, GluD1 (glutamate delta-1 receptor) (Rattus norvegicus, UniProt Q62640).
T1 construct: gene Grid1; rat pCAGGS GluD1 plasmid expressed in COS-7 cells; with Cbln1 (recombinant, HA-tagged)
The test can be described thus: cell-binding assay: inhibition of rCbln1 binding to GluD1-expressing COS-7 cells; effect lost in R526K mutant; immunoblot confirmation in HEK293T. It is filed as cell-based.

In another test the target is GluD1 (UniProt Q9ULK0). As to conditions: cited from earlier work.
A further test deals with Neurexin (UniProt P58400). As to conditions: cited from earlier work.

What is called IC50 is the concentration that inhibits the measured activity by half. The low end stands for greater potency, the high end for weaker potency. For orientation: Kd means the constant that tells how readily two partners part at equilibrium.

Cbln1, sequence (P23435 22-193): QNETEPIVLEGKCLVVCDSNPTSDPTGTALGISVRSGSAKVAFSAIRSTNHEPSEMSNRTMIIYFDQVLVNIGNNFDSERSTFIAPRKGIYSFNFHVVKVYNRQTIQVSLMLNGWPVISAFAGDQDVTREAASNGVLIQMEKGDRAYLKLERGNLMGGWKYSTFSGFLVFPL
GluD1, sequence (Q9ULK0 21-436): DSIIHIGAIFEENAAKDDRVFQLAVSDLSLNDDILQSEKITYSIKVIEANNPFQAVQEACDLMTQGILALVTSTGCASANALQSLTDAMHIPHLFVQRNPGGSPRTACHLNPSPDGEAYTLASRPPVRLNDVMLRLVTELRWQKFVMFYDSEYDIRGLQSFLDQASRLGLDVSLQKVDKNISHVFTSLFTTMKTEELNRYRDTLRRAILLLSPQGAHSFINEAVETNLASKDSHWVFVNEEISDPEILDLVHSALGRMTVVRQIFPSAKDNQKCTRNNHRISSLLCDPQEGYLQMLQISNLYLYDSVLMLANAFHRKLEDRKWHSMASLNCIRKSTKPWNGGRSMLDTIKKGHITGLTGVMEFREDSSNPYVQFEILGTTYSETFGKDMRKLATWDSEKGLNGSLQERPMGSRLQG
Neurexin, sequence (P58400 51-396): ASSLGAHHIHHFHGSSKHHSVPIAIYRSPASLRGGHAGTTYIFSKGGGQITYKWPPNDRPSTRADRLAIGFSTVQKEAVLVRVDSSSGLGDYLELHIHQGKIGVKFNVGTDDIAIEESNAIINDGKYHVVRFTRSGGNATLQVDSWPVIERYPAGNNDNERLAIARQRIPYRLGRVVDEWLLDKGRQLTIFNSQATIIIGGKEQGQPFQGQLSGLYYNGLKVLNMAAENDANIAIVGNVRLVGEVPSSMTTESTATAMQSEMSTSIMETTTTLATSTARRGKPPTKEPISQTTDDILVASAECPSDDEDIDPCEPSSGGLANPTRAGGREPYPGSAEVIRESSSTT
T1 sequence (Q62640 21-1009): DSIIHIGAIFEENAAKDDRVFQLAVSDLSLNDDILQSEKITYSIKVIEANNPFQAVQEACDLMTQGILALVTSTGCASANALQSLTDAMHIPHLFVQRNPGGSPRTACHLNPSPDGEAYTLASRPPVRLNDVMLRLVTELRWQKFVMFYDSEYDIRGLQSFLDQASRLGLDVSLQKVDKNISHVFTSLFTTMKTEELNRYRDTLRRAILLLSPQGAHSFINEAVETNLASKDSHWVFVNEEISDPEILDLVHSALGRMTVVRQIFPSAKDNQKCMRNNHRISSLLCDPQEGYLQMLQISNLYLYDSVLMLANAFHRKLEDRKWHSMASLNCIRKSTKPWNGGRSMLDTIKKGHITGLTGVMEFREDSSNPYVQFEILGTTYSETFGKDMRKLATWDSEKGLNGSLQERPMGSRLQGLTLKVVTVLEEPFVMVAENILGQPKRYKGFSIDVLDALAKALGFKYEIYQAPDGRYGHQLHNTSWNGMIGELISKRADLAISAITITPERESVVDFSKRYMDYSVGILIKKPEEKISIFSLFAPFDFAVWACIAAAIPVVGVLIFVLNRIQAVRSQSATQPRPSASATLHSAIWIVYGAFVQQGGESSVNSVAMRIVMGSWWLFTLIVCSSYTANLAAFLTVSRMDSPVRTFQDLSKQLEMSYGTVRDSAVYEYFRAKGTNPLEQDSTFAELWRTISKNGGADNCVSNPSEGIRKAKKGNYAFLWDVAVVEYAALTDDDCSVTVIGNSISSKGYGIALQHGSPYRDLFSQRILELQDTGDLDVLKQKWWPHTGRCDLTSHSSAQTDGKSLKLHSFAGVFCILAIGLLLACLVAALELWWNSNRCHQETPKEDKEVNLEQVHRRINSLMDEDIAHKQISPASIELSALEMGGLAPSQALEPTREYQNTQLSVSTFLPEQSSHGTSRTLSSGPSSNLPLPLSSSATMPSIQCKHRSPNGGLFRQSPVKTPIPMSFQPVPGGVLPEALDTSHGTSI
T1 sequence (P63182 22-193 partner): as the sequence (P23435 22-193) above

In test [1], `N[C@H](CO)C(=O)O` [D-serine] came in with an IC50 of 310000 ± 160000 nM.
Regarding Cbln1 (from UniProt P23435), the Kd with GluD1 is 100 nM; in the test with Neurexin it was 47 nM.
